Target: the molecule itself
Experiment: SEC-MALS; 3 mg/ml protein; Superdex 200 Increase 10/300 equilibrated in 25 mM Tris-HCl pH 8.5, 250 mM NaCl; 20 °C; 30 µL injected, 0.6 mL/min

B1: Human lamin A Ig (428-552) (domain or fragment, UniProt P02545 428-552, looked up)
chain: SSFSQHARTSGRVAVEEVDEEGKFVRLRNKSNEDQSMGNWQIKRQNGDDPLLTYRFPPKFTLKAGQVVTIWAAGAGATHSPPTDLVWKAQNTWGCGNSLRTALINSTGEEVAMRKLVRSVTVVED
notes: Ig fold domain of human lamin A, residues 428-552, cloned into pQE-80L between BamHI and KpnI; For the NMR experiments the protein was 13C,15N-labelled; also called wild type Ig; Ig fold domain of lamin A; source: E. coli BL21 (DE3) pLysS, purified (His-Trap column)
- stoichiometry N: 2

Reference: article PMC6138676, “Skeletal Muscle Dystrophy mutant of lamin A alters the structure and dynamics of the Ig fold domain” (Scientific Reports, 2018)
